Experiment [1] concerns the target rat lutropin receptor (LHR) (rat) (UniProt P16235). As to the kind of experiment: cell-based or functional assay.
For experiment [2] the target is unchanged. Put plainly: inhibition of 125I-hCG binding to CHO cells with rat LHR; from IC50; acid-stable hCGβ-S138C analog.
Experiment [3] shares this target. Put plainly: receptor binding assay.

rat lutropin receptor (LHR) (rat), sequence (P16235 27-700): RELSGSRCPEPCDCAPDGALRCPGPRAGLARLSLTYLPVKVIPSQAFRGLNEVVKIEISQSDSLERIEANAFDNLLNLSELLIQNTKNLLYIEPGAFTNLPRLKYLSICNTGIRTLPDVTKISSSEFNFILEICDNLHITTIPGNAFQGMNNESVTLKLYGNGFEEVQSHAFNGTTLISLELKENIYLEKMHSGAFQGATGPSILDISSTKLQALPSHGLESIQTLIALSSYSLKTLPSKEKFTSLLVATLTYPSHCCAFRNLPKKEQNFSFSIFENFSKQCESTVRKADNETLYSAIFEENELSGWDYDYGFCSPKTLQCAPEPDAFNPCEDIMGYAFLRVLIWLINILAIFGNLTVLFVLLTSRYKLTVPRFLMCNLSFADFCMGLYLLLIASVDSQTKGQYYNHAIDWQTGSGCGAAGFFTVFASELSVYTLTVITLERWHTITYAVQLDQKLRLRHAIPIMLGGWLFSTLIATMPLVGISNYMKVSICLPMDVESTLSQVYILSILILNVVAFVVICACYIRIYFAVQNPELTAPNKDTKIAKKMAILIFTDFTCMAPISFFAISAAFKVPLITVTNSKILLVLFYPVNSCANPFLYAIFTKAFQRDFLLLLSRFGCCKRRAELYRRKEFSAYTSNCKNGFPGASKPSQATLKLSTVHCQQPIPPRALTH

For the substance “αY88C + hCGβ-S138C (from UniProt P01215 25-116; P0DN86 21-165) (ligand)”, the Signal transduction potency (cAMP accumulation), acid-stable analog in experiment [1] was 0.12 % of hCG. The Receptor-Binding potency (percent hCG) in experiment [2] is 0.05 % of hCG.

For “αT86C + hCGβ-S138C (from UniProt P01215 25-116; P0DN86 21-165) (ligand)”, the Signal transduction potency (cAMP accumulation), acid-stable analog in experiment [1] was 0.18 % of hCG. Besides, the Receptor-Binding potency (percent hCG) in experiment [2] was 2.2 % of hCG.

For “analog containing the entire carboxyterminal residues of the hCG β-subunit attached to the α-subunit (from UniProt P01215 25-116) (ligand)”, the activity relative to hCG in experiment [3] is > 50 % of hCG. Also, the signaling assays in experiment [1] is 50 % of hCG.
